# Test results reported in paper doi:10.1101/2025.03.28.645892.
# Read-outs that look alike come from different tables or passages of the source.
# How the values were obtained:
# [1] = target: Arabidopsis thaliana CDC48A (Arabidopsis thaliana) (UniProt P54609); experiment: ITC
# [2] = target: Arabidopsis thaliana CDC48A (Arabidopsis thaliana) (UniProt P54609); experiment: ITC; remark: listed apart in the source
# [3] = target: Arabidopsis thaliana CDC48A (Arabidopsis thaliana) (UniProt P54609); experiment: cross-linking + SEC-MALS
# [4] = target: Arabidopsis thaliana NPL4 (Arabidopsis thaliana) (UniProt O82264); experiment: MST
# Sequence of Arabidopsis thaliana NPL4 (Arabidopsis thaliana) (O82264 whole entry): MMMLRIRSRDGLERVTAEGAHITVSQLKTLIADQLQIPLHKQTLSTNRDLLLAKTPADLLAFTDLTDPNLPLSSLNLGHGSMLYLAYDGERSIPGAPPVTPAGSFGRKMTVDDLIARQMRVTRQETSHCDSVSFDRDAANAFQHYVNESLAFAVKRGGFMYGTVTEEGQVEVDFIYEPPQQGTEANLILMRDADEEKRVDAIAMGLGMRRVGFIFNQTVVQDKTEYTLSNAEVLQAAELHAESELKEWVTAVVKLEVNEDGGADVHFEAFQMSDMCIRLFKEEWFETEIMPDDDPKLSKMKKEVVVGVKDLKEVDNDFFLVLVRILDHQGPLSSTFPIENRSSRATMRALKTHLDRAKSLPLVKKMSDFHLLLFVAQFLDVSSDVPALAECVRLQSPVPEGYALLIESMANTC
# [5] = target: Arabidopsis thaliana NPL4 (Arabidopsis thaliana) (UniProt O82264); experiment: MST; remark: listed apart in the source
# Sequence of Arabidopsis thaliana CDC48A (Arabidopsis thaliana) (P54609 whole entry): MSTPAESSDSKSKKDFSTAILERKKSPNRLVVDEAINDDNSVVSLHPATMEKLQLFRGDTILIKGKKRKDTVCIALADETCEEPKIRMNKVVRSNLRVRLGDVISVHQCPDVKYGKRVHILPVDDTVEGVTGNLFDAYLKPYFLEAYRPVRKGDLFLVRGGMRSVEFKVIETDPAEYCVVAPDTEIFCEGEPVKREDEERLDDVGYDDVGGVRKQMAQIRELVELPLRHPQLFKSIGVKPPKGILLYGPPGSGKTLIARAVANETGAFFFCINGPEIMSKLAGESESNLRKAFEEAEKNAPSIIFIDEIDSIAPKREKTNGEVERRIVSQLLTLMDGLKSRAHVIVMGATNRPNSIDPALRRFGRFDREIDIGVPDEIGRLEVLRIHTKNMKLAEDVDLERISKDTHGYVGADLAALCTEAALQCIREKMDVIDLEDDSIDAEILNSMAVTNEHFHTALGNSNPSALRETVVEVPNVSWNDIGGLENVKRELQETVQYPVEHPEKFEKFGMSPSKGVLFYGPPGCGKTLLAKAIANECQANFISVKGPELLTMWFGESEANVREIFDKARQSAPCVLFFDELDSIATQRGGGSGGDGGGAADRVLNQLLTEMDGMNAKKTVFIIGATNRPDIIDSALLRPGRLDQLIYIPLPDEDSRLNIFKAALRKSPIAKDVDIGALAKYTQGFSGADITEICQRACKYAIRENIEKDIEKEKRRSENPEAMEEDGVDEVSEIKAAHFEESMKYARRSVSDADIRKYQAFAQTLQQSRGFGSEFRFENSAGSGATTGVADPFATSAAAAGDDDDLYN
Kd [1] [µM],stoichiometry N (AtNPL4 per AtCDC48A hexamer) [1],Kd [2] [µM],stoichiometry N (copy per six AtCDC48A) [3],Kd [4] [µM],Kd [5] [µM],stoichiometry N (cofactor per AtCDC48A hexamer) [1],Substance
2.6,1,7.1,1,–,–,–,Arabidopsis thaliana NPL4 (from UniProt O82264 1-413) (natural protein)
–,–,–,–,> 200,> 200,–,Arabidopsis thaliana UFD1A (natural protein)
4.4,–,–,1,–,–,1,Arabidopsis thaliana UFD1B (from UniProt Q9SJV0 1-340) (natural protein)
